Measured values taken from patent US20230331799A1 (XILIO DEVELOPMENT, published 2023).

Columns and labels:
AK564 [1] = target: T1, AK564 (human, UniProt Q13261 31-96); experiment: SPR (Biacore 8K), multi-cycle kinetics, human CD122 immobilised by amine coupling, construct as analyte, 25 C
T1 construct: also called IL-15 masked non-cleavable AK564

AK564 [2] = target: T1, AK564; experiment: SPR (Biacore 8K), multi-cycle kinetics, human CD215 immobilised by amine coupling, construct as analyte, 25 C

| Binder | binding result (AK564 [1]) | binding result (AK564 [2]) |
| --- | --- | --- |
| Recombinant Human IL-2 R beta Protein (CD122) (receptor, UniProt P14784 27-239, looked up, also called human CD122) AVNGTSQFTCFYNSRANISCVWSQDGALQDTSCQVHAWPDRRRWNQTCELLPVSQASWACNLILGAPDSQKLTTVDIVTLRVLCREGVRWRVMAIQDFKPFENLRLMAPISLQVVHVETHRCNISWEISQASHYFERHLEFEARTLSPGHTWEEAPLLTLKQKQEWICLETLTPDTQYEFQVRVKPLQGEFTTWSPWSQPLAFRTKPAALGKD | no binding (tested: Top 500 nM, 2x dilution) |  |
| Recombinant Human IL-15R alpha Fc chimera Protein (CD215) (Fc fusion, UniProt Q13261 31-205, looked up, also called human CD215; Fc part of the bought chimera not given) ITCPPPMSVEHADIWVKSYSLYSRERYICNSGFKRKAGTSSLTECVLNKATNVAHWTTPSLKCIRDPALVHQRPAPPSTVTTAGVTPQPESLSPSGKEPAASSPSSNNTAATTAAIVPGSQLMPSKSPSTGTTEISSHESSHGTPSQTTAKNWELTASASHQPPGVYPQGHSDTT |  | no binding (tested: Top 40 nM, 2x dilution) |
